Experimental data: paper PMC4245140, “Towards Engineering Hormone-Binding Globulins as Drug Delivery Agents” (PLoS ONE, 2014)
Residue numbers refer to the chain shown, from its start. Names may count otherwise.

T1: human neutrophil elastase (Homo sapiens, UniProt P08246)
T1 sequence (P08246 30-267): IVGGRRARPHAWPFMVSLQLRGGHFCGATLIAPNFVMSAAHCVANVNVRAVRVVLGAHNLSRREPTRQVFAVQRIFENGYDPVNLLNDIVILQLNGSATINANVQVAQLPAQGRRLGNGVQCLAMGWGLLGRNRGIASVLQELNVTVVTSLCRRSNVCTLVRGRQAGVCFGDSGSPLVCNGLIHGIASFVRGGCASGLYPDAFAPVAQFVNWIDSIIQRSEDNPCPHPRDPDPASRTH

B1: TBG: Thyroxine binding globulin, hormone-carrying serpin, comparator (protein, UniProt P05543 21-415, looked up)
Thyroxine-binding globulin: ASPEGKVTACHSSQPNATLYKMSSINADFAFNLYRRFTVETPDKNIFFSPVSISAALVMLSFGACCSTQTEIVETLGFNLTDTPMVEIQHGFQHLICSLNFPKKELELQIGNALFIGKHLKPLAKFLNDVKTLYETEVFSTDFSNISAAKQEINSHVEMQTKGKVVGLIQDLKPNTIMVLVNYIHFKAQWANPFDPSKTEDSSSFLIDKTTTVQVPMMHQMEQYYHLVDMELNCTVLQMDYSKNALALFVLPKEGQMESVEAAMSSKTLKKWNRLLQKGWVDLFVPKFSISATYDLGATLLKMGIQHAYSENADFSGLTEDNGLKLSNAAHKAVLHIGEKGTEAAAVPEVELSDQPENTFLHPIIQIDRSFMLLILERSTRSILFLGKVVNPTEA
B2: CBG-T349R: Human CBG with P1 threonine of reactive centre loop mutated to arginine (protein, UniProt P08185 23-405, looked up, variant T349R)
Corticosteroid-binding …: MDPNAAYVNMSNHHRGLASANVDFAFSLYKHLVALSPKKNIFISPVSISMALAMLSLGTCGHTRAQLLQGLGFNLTERSETEIHQGFQHLHQLFAKSDTSLEMTMGNALFLDGSLELLESFSADIKHYYESEVLAMNFQDWATASRQINSYVKNKTQGKIVDLFSGLDSPAILVLVNYIFFKGTWTQPFDLASTREENFYVDETTVVKVPMMLQSSTISYLHDSELPCQLVQMNYVGNGTVFFILPDKGKMNTVIAALSRDTINRWSAGLTSSQVDLYIPKVTISGVYDLGDVLEEMGIADLFTNQANFSRITQDAQLKSSKVVHKAVLQLNEEGVDTAGSTGVTLNLRSKPIILRFNQPFIIMIFDHFTWSSLFLARVMNPV
B3: P1-Arg + S100C-V236C-V336L: Human CBG combining S100C-V236C disulphide and V336L on T349R background (protein, UniProt P08185 23-405, looked up, variant S100C V236C V336L T349R)
Corticosteroid-binding …: B2 Corticosteroid-binding … with S100C, V236C, V336L
B4: P1-Arg + V336I: Human CBG with P14 Val336Ile on T349R (P1 Arg) background, thrombin-cleavable (protein, UniProt P08185 23-405, looked up, variant V336I T349R)
Corticosteroid-binding …: B2 Corticosteroid-binding … with V336I
B5: P1-Arg + S100C-V236C-V336I: Human CBG combining S100C-V236C disulphide and V336I on T349R background (protein, UniProt P08185 23-405, looked up, variant S100C V236C V336I T349R)
Corticosteroid-binding …: B2 Corticosteroid-binding … with S100C, V236C, V336I
B6: P1-Arg + V336L: Human CBG with P14 Val336Leu on T349R (P1 Arg) background, thrombin-cleavable (protein, UniProt P08185 23-405, looked up, variant V336L T349R)
Corticosteroid-binding …: B2 Corticosteroid-binding … with V336L
B7: CBG-Trp371Arg: Human CBG with binding pocket Trp 371 mutated to arginine (protein, UniProt P08185 23-405, looked up, variant W371R)
Corticosteroid-binding …: B2 Corticosteroid-binding … with R349T, W371R
B8: CBG-Trp371Ala: Human CBG with binding pocket Trp 371 mutated to alanine (protein, UniProt P08185 23-405, looked up, variant W371A)
Corticosteroid-binding …: B2 Corticosteroid-binding … with R349T, W371A
B9: P1-Arg + S100C-V236C: Human CBG with Ser100Cys/Val236Cys disulphide mutations on T349R background (PDB 4C41, cleaved) (protein, UniProt P08185 23-405, looked up, variant S100C V236C T349R)
Corticosteroid-binding …: B2 Corticosteroid-binding … with S100C, V236C
B10: wild-type: Recombinant wild type human corticosteroid binding globulin expressed in E. coli (protein, UniProt P08185 23-405, looked up)
Corticosteroid-binding …: B2 Corticosteroid-binding … with R349T
modifications: expressed in E. coli

Experiments:
[1] = biological target: prostate specific antigen (PSA) (Homo sapiens, UniProt P07288); assay: Protease cleavage assay (SDS-PAGE) with prostate specific antigen; type: biochemical; conditions: incubation 2-72 hours
Sequence of prostate specific antigen (PSA) (P07288 25-261): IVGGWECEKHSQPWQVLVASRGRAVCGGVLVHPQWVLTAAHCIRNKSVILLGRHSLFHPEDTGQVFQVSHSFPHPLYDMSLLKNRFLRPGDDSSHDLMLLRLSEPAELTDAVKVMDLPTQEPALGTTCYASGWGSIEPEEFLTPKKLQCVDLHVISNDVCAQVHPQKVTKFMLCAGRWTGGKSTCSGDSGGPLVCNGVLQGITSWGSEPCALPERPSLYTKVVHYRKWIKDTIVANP
Source text: (§1) Reactive loop cleavage is marked by a characteristic 4 kDa change in molecular weight following release of a peptide when the R-state CBG is unfolded, such as when it is subjected to the denaturing conditions of an SDS-PAGE [14], [22]. We used this as a convenient means by which to check the engineered protein's protease specificity and, as a corollary, its site specificity.

[2] = Fluorimetric titration of L-T4-thyroxine-6-carboxyfluorescein with engineered CBG; type: binding; conditions: for Kd: 25°C
Method: (§2) Fluorescence spectroscopy was used to study the CBG-ligand interactions. Experiments were performed on an LS55 120V fluorescence spectrometer (Perkin Elmer), and the data were read and recorded using their proprietary FL WinLab software. For binding studies of CBG with cortisol, the excitation wavelength was set at 280 nm and the emission was detected at 350 nm, with a 315 nm cut-off filter used to prevent the excitation laser from leaching into the emission channel. For the binding studies of engineered CBG with L-T4-thyroxine-6-carboxyfluorescein, the excitation wavelength was set at 495 nm and emission was recorded at 520 nm whilst applying a 515 nm cut-off filter.
L-T4-thyroxine-6-carboxyfluorescein was previously synthesised and purified as a 1.09 µM solution with acetonitrile as its solvent. This was diluted into a 5 nM solution with a buffer containing 10 mM Tris-HCl, pH 7.4, 150 mM NaCl, 1 mM EDTA, 0.1% v/v PEG 8000. Aliquots of the engineered CBG were titrated into 800 µl of this solution, and increments in fluorescence signal were monitored.
(§3) In both cases, the data were fitted using Prism 5 (GraphPad Software) to the following equation to obtain the dissociation constant, Kd: [drawing 2] (2) where ΔF is the fluorescence change, ΔFM is the maximum change in fluorescence signal, [L]t is the total concentration of ligand added and [E]t is the total protein concentration.

thrombin = biological target: T2, thrombin (Homo sapiens, UniProt P00734); assay: Protease cleavage assay (SDS-PAGE) with thrombin; type: biochemical; conditions: protease:CBG 1:100, 37°C, half an hour
T2 construct: causes the zymogen, prothrombin, to be cleaved to produce enzymatically-active thrombin
Method: as §1, with “To determine if a particular target protease is able to cleave the reactive centre loop of an engineered CBG variant, the protease was incubated with CBG at a molar ratio of 1∶100 at 37°C for half an hour unless otherwise specified. Reactive” for “Reactive”

[3] = biological target: T1, human neutrophil elastase; assay: Protease cleavage assay (SDS-PAGE) with human neutrophil elastase; type: biochemical; conditions: protease:CBG 1:100, 37°C
Method: as §1, with “To determine if a particular target protease is able to cleave the reactive centre loop of an engineered CBG variant, the protease was incubated with CBG at a molar ratio of 1∶100 at 37°C for half an hour unless otherwise specified. Reactive” for “Reactive”

[4] = Fluorimetric titration (intrinsic fluorescence quenching) of CBG with cortisol; type: binding; conditions: for Kd / Fold change in Kd (cortisol) on reactive centre loop cleavage, S to R: physiological temperature (37°C); for Fold change in Kd (cortisol) on reactive centre loop cleavage, S to R: disulphide mutants in absence of TCEP
Method: CBG is known to bind cortisol with a one-to-one stoichiometry, [19]. Therefore, the dissociation constant, which is a measure of binding affinity, is given by the following equation: [drawing 1] (1) where [E]f is the concentration of free CBG, [L]f is the concentration of free ligand, and [E·L] is the concentration of the CBG-ligand complex.
as §2
The cortisol stock solution was prepared by dissolving lyophilised cortisol (Sigma Aldrich) in 80% ethanol to make a 500 µM solution, which was then diluted with water to make solutions of 20, 40 and 80 µM, with water being used as a negative control. Aliquots of the ligand solutions were then titrated into 800 µl of a 200 nM solution of CBG made by diluting the protein stock with a buffer containing 10 mM Tris-HCl, pH 7.4, 150 mM NaCl, 1 mM EDTA, 0.1% v/v PEG 8000, and the decrease in fluorescence due to quenching was measured.
as §3

[5] = Biolayer interferometry of CBG on immobilised cortisol (ForteBio Octet Red); type: binding; conditions: CBG 0-10000 nM
Method: Biolayer interferometry was carried out on a ForteBio Octet Red apparatus (ForteBio, Menlo Park, California, USA) to determine binding affinity where fluorescence quenching experiments would not work due to mutation of Trp 371, which is the main source of intrinsic fluorescence in the binding pocket. The system uses a change in interference pattern of reflected light to detect the change in optical thickness of the sensor tip. Cortisol was immobilised on the biosensor tip surface by forming an adduct of hydrocortisone 21-hemisuccinate and a pentylamine-biotin linker through an amide bond, then allowing the biotin moiety on this cortisol adduct to bind to the streptavidin-conjugated biosensor tip. The cortisol-conjugated sensors were immersed into wells of a shaking microtitre plate containing solutions of CBG at 0, 200, 500, 1000, 2500, 5000 and 10000 nM concentrations in a 10 mM Tris-HCl, pH 7.4, 150 mM NaCl, 1 mM EDTA, 0.1 mg/ml bovine serum albumin buffer, and analysed against an internal reference.

[6] = set-up: method as in PMID 23783094; conditions: recombinantly expressed wild type CBG; cited from earlier work
[7] = intact S-state, read-out: Kd for cortisol, S (uncleaved) conformation
[8] = reactive centre loop-cleaved R-state, read-out: Kd for cortisol, R (cleaved) conformation

| Molecule | Kd [4, 7] [nM] | Fold change in Kd (cortisol) on reactive centre loop cleavage, S to R [4] [fold] | Kd [4, 8] [nM] | other results |
| --- | --- | --- | --- | --- |
| SALLSSDI: CBG variant with reactive centre loop segment STGVTLNL mutated to SALLSSDI (PSA substrate) (EEGVDTAGSALLSSDITSKPII) | – | – | – | Cleavage of reactive centre loop by PSA [1]: cleavage of their respective reactive centre loops |
| B1 | – | – | – | Kd [2]: 0.73 nM |
| B2 | – | – | – | Cleavage of reactive centre loop by thrombin (thrombin): same susceptibility to cleavage by thrombin as the CBG-antitrypsinPittsburgh chimera; Cleavage of reactive centre loop by thrombin (thrombin; listed as CBG-Thr349Arg): successfully cleaved by thrombin; Cleavage by human neutrophil elastase [3]: further engineering would be required to remove elastase cleavage |
| B3 | 252 ± 17 | 6.4 | 1600 ± 320 | – |
| B4 | 326 ± 46 | 10 | 3420 ± 440 | – |
| B5 | 297 ± 40 | 7.6 | 2260 ± 320 | – |
| B6 | 295 ± 44 | 8.2 | 2420 ± 200 | – |
| B7 | – | – | – | Affinity for cortisol by biolayer interferometry [5]: no measurable affinity for cortisol; Kd [2]: 840 nM |
| B8 | – | – | – | Affinity for cortisol by biolayer interferometry [5]: no detectable affinity for cortisol |
| B9 | 278 ± 64 | 6.5 | 1800 ± 49 | Change in cortisol binding affinity after reactive loop cleavage in presence of TCEP ([4]; 37°C, reducing agent TCEP present): very similar to that of wild-type CBG |
| B10 | 279 ± 18 | 2.6 | 734 ± 48 | Affinity for L-thyroxine-6-carboxyfluorescein [2]: no affinity; Cleavage of reactive centre loop by thrombin (thrombin): remained unreactive; Cleavage of reactive centre loop by PSA [1]: no evidence of reactive centre loop cleavage; Fold decrease in affinity for cortisol upon cleavage of reactive centre loop [6]: 2.6 fold |
